Test results as given in the RNAGym collection of RNA variant scans (doi:10.7554/elife.90254).

B1: LINE1-full (parent)
chain: UACGUAGGUGGUUUUCCCCUGAUAGUGCUAAGGGGGCCUGGAAGUUUGGACUGGGCAGAGCUCAACACAGCGUGGCAAAGUGGCUGUGGCUAGACUGCCUCUCUGGAUUCCUCGUCACUCAGCAGGGCAUCUCUGAGAGAAAUGCC

Variants of: B1
Assay: self-cleavage, relative activity (ratio to wild type); higher = more cleavage; in vitro, sequencing; the parent is a self-cleaving ribozyme

Variant	self-cleavage
U9C C95G	0.12
C103U G114C	1.5
A65G U81A	0.06
U91C A124G	0.33
U5C U96A	0.12
U13A G125A	0.72
U14A A138G	1.15
A59G U87G	0
A30G U112C	0.96
U47G C146A	1.22
U47G U130C	1.24
U26A U39C	0.73
U87A C145U	0.1
G32A A79G	1.26
U12G U20C	1.02
U47A A69G	0.52
G88A U108C	0.05
A24U C120U	0.79
G35C U46C	1.38
U9A G35A	1.09
U39G A65C	0.04
A42G G48A	0.85
U12C C28U	0.74
A67U A124C	0.17

Variant	self-cleavage
A24G A31G	0.72
U73A C76U	2.51
A42G A140C	0.93
U47C U108C	1.62
U62A C133U	0.04
U119G U143A	0.95
C17U U29C	0.81
G41A U96C	0.11
A22C A129G	1.39
G35U G40A	0.85
G4U A69G	0.32
C3G A31U	0.98
A43U C110U	0.83
G83A U119A	0.85
U143C	1.18
U29C U134A	0.89
U15C G82A	1.92
U100C C103U	1.65
A107U A129U	1.86
U20C G33C	0.74
C63U U85C	0.08
A67U C133U	0.1
U81C A142C	1.18
U62A U87A	0.04

Variant	self-cleavage
U12C G27A	0.87
A6G A42U	0.82
A64U G74A	0.3
A107C U143A	1.79
U102A	1.21
A57U U132A	0.13
C28U U119C	1.12
A6U C133A	0.49
U15C A124C	0.86
A140G A142U	0.84
C95U U100C	0.59
U1C U46A	0.43
G35A A79G	1.36
U52C A121G	1.41
U112A	1.43
G83C A94G	0.17
G7A A124G	0.6
G33A A59G	0.12
U12G A121U	1.31
U12G A59U	1.15
U100A U102C	1.7
U45C G58A	0.04
A43G U46C	0.53
A92C C128U	0.31

Variant	self-cleavage
A22G C113G	0.82
A50G U87A	0.03
U73C C98A	0.21
A65U A69G	0.09
C19U U96C	0.18
A67G C111A	0.58
C19U A24U	1
U13A U132C	0.98
G32A A138U	0.89
G80A A124G	1
G54A A69G	0.18
U45C G106A	2
U15A U134C	1.19
G4A U15C	1.11
C90U U132C	0.03
U96C U108A	0.09
G44A U46C	1.06
A69G U112G	1.15
U12C U130A	1.49
A2G U132G	1.6
A59G U115A	0.11
A2G A92G	0
A31G U96C	0.16
G72U U132C	1.11

Variant	self-cleavage
U119C U130C	1.72
C61U A77G	0.06
A31C	1.43
A22U C118U	1.47
C76A U81C	1.46
U29C G55C	0
U14C U87C	0.26
U46G G144U	0.95
A42G G127A	1.04
A43G U91C	0.37
G80A A121G	2.16
A79G C95U	0.08
U26C A67U	0.06
U15G	1.06
A42G U102A	1.38
C38A G44U	1.48
U12C G82A	1.68
A79G C120G	1.08
C99U U119C	0.96
A22U A50G	1.01
C37G U45C	1.6
U12C A65G	0.15
U45A C95U	0.18
G126A A140U	1.67

Variant	self-cleavage
U91A A94G	0.09
U20C G86A	0.11
A6U A59G	0.11
C37U C128A	1.23
G60A G127A	0.03
G82A G114U	2.07
A67U A107G	0
U12C A43G	1.33
A94G U109C	0.07
G36U A69G	0
C113A A136G	0.91
G127U A129G	0.75
C116U A121G	1.57
U46C U102C	1.13
C16U A64G	0.09
U20C C84G	0.09
U20A G41C	0.73
C63A U108C	0.08
A67G U119C	1.07
U13C U112C	1.35
A57C A138G	0.22
A121C	1.51
A31G A117G	1.84
A77G A140U	2.21

Variant	self-cleavage
U12C C71U	0.9
G4A C145U	1.11
U62A U112A	0.05
U85C A141G	0.16
U29A G72A	1.13
A65G C71U	0.03
U20C A124U	1.17
G53C A136G	0.36
A24G U46C	1.74
U62A U109C	0.05
A69C A142G	0.11
U13A U29A	0.42
U20A G139A	0.53
U13C A65G	0.12
A57G G83C	0.17
A2G C90U	0.15
U26G A124G	0.69
A30G C103A	0.85
A67U A121C	0.2
U20C U73C	1.62
A31G A59C	1.53
A22G U29A	1.24
A94G A141G	0.25
